Results from patent US9580733B2, “Methods of producing 6-carbon chemicals via methyl-ester shielded carbon chain elongation” (INVISTA North America S.á r.l., priority 2012, dated 2017).

B1: SEQ ID NO 10: Pseudomonas syringae ω-transaminase (Genbank Accession No. AAY39893.1) (protein, listed as Pseudomonas syringae)
chain: MSANNPQTLEWQALSSEHHLAPFSDYKQLKEKGPRIITRAEGVYLWDSEGNKILDGMSGLWCVAIGYGREELADAASKQMRELPYYNLFFQTAHPPVLELAKAISDIAPEGMNHVFFTGSGSEGNDTMLRMVRHYWALKGQPNKKTIISRVNGYHGSTVAGASLGGMTYMHEQGDLPIPGVVHIPQPYWFGEGGDMTPDEFGIWAAEQLEKKILELGVENVGAFIAEPIQGAGGVIVPPDSYWPKIKEILSRYDILFAADEVICGFGRTSEWFGSDFYGLRPDMMTIAKGLTSGYVPMGGLIVRDEIVAVLNEGGDFNHGFTYSGHPVAAAVALENIRILREEKIVERVRSETAPYLQKRLRELSDHPLVGEVRGVGLLGAIELVKDKTTRERYTDKGAGMICRTFCFDNGLIMRAVGDTMIIAPPLVISFAQIDELVEKARTCLDLTLAVLQG
B2: SEQ ID NO 2: Escherichia coli thioesterase encoded by YciA (GenBank Accession No. AAB60068.1), N-terminal His-tagged (protein, listed as Escherichia coli)
chain: MSTTHNVPQGDLVLRTLAMPADTNANGDIFGGWLMSQMDIGGAILAKEIAHGRVVTVRVEGMTFLRPVAVGDVVCCYARCVQKGTTSVSINIEVWVKKVASEPIGQRYKATEALFKYVAVDPEGKPRALPVE
modifications: N-terminal His tag
B3: SEQ ID NO 8: Chromobacterium violaceum ω-transaminase (Genbank Accession No. AAQ59697.1) (protein, listed as Chromobacterium violaceum)
chain: MQKQRTTSQWRELDAAHHLHPFTDTASLNQAGARVMTRGEGVYLWDSEGNKIIDGMAGLWCVNVGYGRKDFAEAARRQMEELPFYNTFFKTTHPAVVELSSLLAEVTPAGFDRVFYTNSGSESVDTMIRMVRRYWDVQGKPEKKTLIGRWNGYHGSTIGGASLGGMKYMHEQGDLPIPGMAHIEQPWWYKHGKDMTPDEFGVVAARWLEEKILEIGADKVAAFVGEPIQGAGGVIVPPATYWPEIERICRKYDVLLVADEVICGFGRTGEWFGHQHFGFQPDLFTAAKGLSSGYLPIGAVFVGKRVAEGLIAGGDFNHGFTYSGHPVCAAVAHANVAALRDEGIVQRVKDDIGPYMQKRWRETFSRFEHVDDVRGVGMVQAFTLVKNKAKRELFPDFGEIGTLCRDIFFRNNLIMRACGDHIVSAPPLVMTRAEVDEMLAVAERCLEEFEQTLKARGLA
B4: SEQ ID NO 9: Pseudomonas aeruginosa ω-transaminase (Genbank Accession No. AAG08191.1) (protein, listed as Pseudomonas aeruginosa)
chain: MNARLHATSPLGDADLVRADQAHYMHGYHVFDDHRVNGSLNIAAGDGAYIYDTAGNRYLDAVGGMWCTNIGLGREEMARTVAEQTRLLAYSNPFCDMANPRAIELCRKLAELAPGDLDHVFLTTGGSTAVDTAIRLMHYYQNCRGKRAKKHVITRINAYHGSTFLGMSLGGKSADRPAEFDFLDERIHHLACPYYYRAPEGLGEAEFLDGLVDEFERKILELGADRVGAFISEPVFGSGGVIVPPAGYHRRMWELCQRYDVLYISDEVVTSFGRLGHFFASQAVFGVQPDIILTAKGLTSGYQPLGACIFSRRIWEVIAEPDKGRCFSHGFTYSGHPVACAAALKNIEIIEREGLLAHADEVGRYFEERLQSLRDLPIVGDVRGMRFMACVEFVADKASKALFPESLNIGEWVHLRAQKRGLLVRPIVHLNVMSPPLILTREQVDTVVRVLRESIEETVEDLVRAGHR
B5: SEQ ID NO 12: Escherichia coli ω-transaminase, gene product of YgjG (Genbank Accession No. AAA57874.1) (protein, listed as Escherichia coli)
chain: MNRLPSSASALACSAHALNLIEKRTLDHEEMKALNREVIEYFKEHVNPGFLEYRKSVTAGGDYGAVEWQAGSLNTLVDTQGQEFIDCLGGFGIFNVGHRNPVVVSAVQNQLAKQPLHSQELLDPLRAMLAKTLAALTPGKLKYSFFCNSGTESVEAALKLAKAYQSPRGKFTFIATSGAFHGKSLGALSATAKSTFRKPFMPLLPGFRHVPFGNIEAMRTALNECKKTGDDVAAVILEPIQGEGGVILPPPGYLTAVRKLCDEFGALMILDEVQTGMGRTGKMFACEHENVQPDILCLAKALGGGVMPIGATIATEEVFSVLFDNPFLHTTTFGGNPLACAAALATINVLLEQNLPAQAEQKGDMLLDGFRQLAREYPDLVQEARGKGMLMAIEFVDNEIGYNFASEMFRQRVLVAGTLNNAKTIRIEPPLTLTIEQCELVIKAARKALAAMRVSVEEA
B6: SEQ ID NO 1: Escherichia coli thioesterase encoded by tesB (GenBank Accession No. AAA24665.1), N-terminal His-tagged (protein, listed as Escherichia coli)
chain: MSQALKNLLTLLNLEKIEEGLFRGQSEDLGLRQVFGGQVVGQALYAAKETVPEERLVHSFHSYFLRPGDSKKPIIYDVETLRDGNSFSARRVAAIQNGKPIFYMTASFQAPEAGFEHQKTMPSAPAPDGLPSETQIAQSLAHLLPPVLKDKFICDRPLEVRPVEFHNPLKGHVAEPHRQVWIRANGSVPDDLRVHQYLLGYASDLNFLPVALQPHGIGFLEPGIQIATIDHSMWFHRPFNLNEWLLYSVESTSASSARGFVRGEFYTQDGVLVASTVQEGVMRNHN
modifications: N-terminal His tag

Tests used:
Type in all cases: biochemical
[1] = ω-transaminase activity assay, reverse direction, 6-aminohexanoate to adipate semialdehyde; details: cell free extract, 10 mM 6-aminohexanoate, 10 mM pyruvate, 25° C., 24 h, vs empty vector control, FIG. 15
Protocol: (§1) A nucleotide sequence encoding a His-tag was added to the genes from Chromobacterium violaceum, Pseudomonas aeruginosa, Pseudomonas syringae, Rhodobacter sphaeroides, and Vibrio fluvialis encoding the ω-transaminases of SEQ ID NOs: 7, 8, 9, 10 and 12, respectively (see FIGS. 7E and 7F) such that N-terminal HIS tagged ω-transaminases could be produced. Each of the resulting modified genes was cloned into a pET21a expression vector under control of the T7 promoter and each expression vector was transformed into a BL21[DE3] E. coli host. The resulting recombinant E. coli strains were cultivated at 37° C. in a 250 mL shake flask culture containing 50 mL LB media and antibiotic selection pressure, with shaking at 230 rpm. Each culture was induced overnight at 16° C. using 1 mM IPTG.
(§2) The pellet from each induced shake flask culture was harvested via centrifugation. Each pellet was resuspended and lysed via sonication. The cell debris was separated from the supernatant via centrifugation and the cell free extract was used immediately in enzyme activity assays.
Enzyme activity assays in the reverse direction (i.e., 6-aminohexanoate to adipate semialdehyde) were performed in a buffer composed of a final concentration of 50 mM HEPES buffer (pH=7.5), 10 mM 6-aminohexanoate, 10 mM pyruvate and 100 μM pyridoxyl 5′ phosphate. Each enzyme activity assay reaction was initiated by adding cell free extract of the ω-transaminase gene product or the empty vector control to the assay buffer containing the 6-aminohexanoate and incubated at 25° C. for 24 h, with shaking at 250 rpm. The formation of L-alanine from pyruvate was quantified via RP-HPLC.

[2] = ω-transaminase activity assay, forward direction, adipate semialdehyde to 6-aminohexanoate; details: cell free extract, 10 mM adipate semialdehyde, 10 mM L-alanine, 25° C., 4 h, vs empty vector control, FIG. 16
Protocol: as §1, §2
Enzyme activity in the forward direction (i.e., adipate semialdehyde to 6-aminohexanoate) was confirmed for the transaminases of SEQ ID NO 7, SEQ ID NO 8, SEQ ID NO 9, SEQ ID NO 10 and SEQ ID NO 12. Enzyme activity assays were performed in a buffer composed of a final concentration of 50 mM HEPES buffer (pH=7.5), 10 mM adipate semialdehyde, 10 mM L-alanine and 100 μM pyridoxyl 5′ phosphate. Each enzyme activity assay reaction was initiated by adding a cell free extract of the ω-transaminase gene product or the empty vector control to the assay buffer containing the adipate semialdehyde and incubated at 25° C. for 4 h, with shaking at 250 rpm. The formation of pyruvate was quantified via RP-HPLC.

[3] = Thioesterase enzyme activity assay, adipyl-CoA to adipate; details: 667 μM adipyl-CoA, pH 7.4, 37° C., 20 min, vs empty vector control, FIG. 8
Protocol: A sequence encoding an N-terminal His-tag was added to the genes from Escherichia coli encoding the thioesterases of SEQ ID NOs: 1 and 2 respectively (see FIG. 7A), such that an N-terminal HIS tagged thioesterase could be produced. Each of the resulting modified genes was cloned into a pET15b expression vector under control of the T7 promoter. Each expression vector was transformed into a BL21[DE3] E. coli host. The resulting recombinant E. coli strains were cultivated at 37° C. in a 500 mL shake flask culture containing 50 mL Luria Broth (LB) media and antibiotic selection pressure, with shaking at 230 rpm. The culture was induced overnight at 17° C. using 0.5 mM IPTG.
The pellet from the induced shake flask culture was harvested via centrifugation. The pellet was resuspended and lysed in Y-per™ solution (ThermoScientific, Rockford, Ill.). The cell debris was separated from the supernatant via centrifugation. […]
The enzyme activity assay was performed in triplicate in a buffer composed of 50 mM phosphate buffer (pH=7.4), 0.1 mM Ellman's reagent, and 667 μM of adipyl-CoA (as substrate). […] The release of Coenzyme A was monitored by absorbance at 412 nm. The absorbance associated with the substrate only control, which contained boiled enzyme, was subtracted from the active enzyme assay absorbance and compared to the empty vector control.

Molecule	ω-transaminase activity for converting 6-aminohexanoate to adipate semialdehyde (formation of L-alanine from pyruvate, RP-HPLC) [1]	ω-transaminase activity for converting adipate semialdehyde to 6-aminohexanoate (formation of pyruvate, RP-HPLC) [2]	thioesterase activity for converting adipyl-CoA to adipate (release of Coenzyme A, absorbance at 412 nm) [3]
B1	accepted 6-aminohexanote as substrate	accepted adipate semialdehyde as substrate	
B2			accepted adipyl-CoA as substrate
B3		accepted adipate semialdehyde as substrate	
B4	accepted 6-aminohexanote as substrate	accepted adipate semialdehyde as substrate	
B5	accepted 6-aminohexanote as substrate	accepted adipate semialdehyde as substrate	
B6			accepted adipyl-CoA as substrate
